Data as given in the supplement of paper PMC10567573.

B1: TEKT4 (parent)
chain: LREKLLEAEQSLRNLEDIHMSLEK

Variants of: B1
Assay: protein stability index of a GFP-peptide fusion (GPS, HEK-293T) (PSI 1-6); higher = more stable
Settings: c terminus: a fixed tail appended
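Also: lentivirally expressed fusions sorted by FACS into six bins by GFP to DsRed ratio, PSI derived from sequencing read proportions per bin multiplied by bin number.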

First: LREKLLEANQSLRNLEDIHMSLEK [E9N]
Second: LREKLLEARQSLRNLEDIHMSLEK [E9R]
The protein stability index of the first is lower: 3.15 for the first, 3.25 for the second.

Going from LREKLLEAQQSLRNLEDIHMSLEK [E9Q] to LREKLLEAIQSLRNLEDIHMSLEK [E9I], the protein stability index falls from 1.98 to 1.75.

Going from LREKLLEALQSLRNLEDIHMSLEK [E9L] to LREKLLEAVQSLRNLEDIHMSLEK [E9V], the protein stability index falls from 2.77 to 2.05.

First: LREKLLEADQSLRNLEDIHMSLEK [E9D]
Second: LREKLLEAKQSLRNLEDIHMSLEK [E9K]
The protein stability index of the first is higher: 3.4 for the first, 3.17 for the second.

Compared with LREKLLEAHQSLRNLEDIHMSLEK [E9H], LREKLLEAPQSLRNLEDIHMSLEK [E9P] is higher in protein stability index: 2.58 for the first, 3.52 for the second.

First: LREKLLEAAQSLRNLEDIHMSLEK [E9A]
Second: LREKLLEAGQSLRNLEDIHMSLEK [E9G]
The protein stability index of the first is lower: 2.38 for the first, 2.89 for the second.

Compared with LREKLLEAWQSLRNLEDIHMSLEK [E9W], LREKLLEASQSLRNLEDIHMSLEK [E9S] is higher in protein stability index: 2.06 for the first, 2.61 for the second.

Compared with LREKLLEAYQSLRNLEDIHMSLEK [E9Y], LREKLLEATQSLRNLEDIHMSLEK [E9T] is higher in protein stability index: 2.06 for the first, 2.44 for the second.

Compared with LREKLLEAFQSLRNLEDIHMSLEK [E9F], LREKLLEACQSLRNLEDIHMSLEK [E9C] is higher in protein stability index: 1.37 for the first, 1.85 for the second.

Compared with LREKLIEAEQSLRNLEDIHMSLEK [L6I], LREKLMEAEQSLRNLEDIHMSLEK [L6M] is higher in protein stability index: 1.86 for the first, 2.83 for the second.

Going from LREKLDEAEQSLRNLEDIHMSLEK [L6D] to LREKLKEAEQSLRNLEDIHMSLEK [L6K], the protein stability index falls from 3.54 to 3.31.

Compared with LREKLFEAEQSLRNLEDIHMSLEK [L6F], LREKLNEAEQSLRNLEDIHMSLEK [L6N] is higher in protein stability index: 2.34 for the first, 2.89 for the second.

Going from LREKLGEAEQSLRNLEDIHMSLEK [L6G] to LREKLWEAEQSLRNLEDIHMSLEK [L6W], the protein stability index falls from 2.65 to 2.23.

Going from LREKLVEAEQSLRNLEDIHMSLEK [L6V] to LREKLCEAEQSLRNLEDIHMSLEK [L6C], the protein stability index rises from 2.65 to 2.92.

First: LREKLREAEQSLRNLEDIHMSLEK [L6R]
Second: LREKLSEAEQSLRNLEDIHMSLEK [L6S]
The protein stability index of the first is lower: 2.86 for the first, 4.23 for the second.

Going from LREKLTEAEQSLRNLEDIHMSLEK [L6T] to LREKLAEAEQSLRNLEDIHMSLEK [L6A], the protein stability index rises from 2.94 to 3.11.

Going from LREKLPEAEQSLRNLEDIHMSLEK [L6P] to LREKLEEAEQSLRNLEDIHMSLEK [L6E], the protein stability index falls from 5.19 to 2.84.

Compared with LREKLHEAEQSLRNLEDIHMSLEK [L6H], LREKLQEAEQSLRNLEDIHMSLEK [L6Q] is lower in protein stability index: 3.27 for the first, 2.91 for the second.

Compared with LREKLYEAEQSLRNLEDIHMSLEK [L6Y], LREKLLEREQSLRNLEDIHMSLEK [A8R] is higher in protein stability index: 2.61 for the first, 3.92 for the second.

First: LREKLLEFEQSLRNLEDIHMSLEK [A8F]
Second: LREKLLEQEQSLRNLEDIHMSLEK [A8Q]
The protein stability index of the first is lower: 2.52 for the first, 2.72 for the second.

Compared with LREKLLEEEQSLRNLEDIHMSLEK [A8E], LREKLLEVEQSLRNLEDIHMSLEK [A8V] is lower in protein stability index: 3.99 for the first, 2.72 for the second.

Compared with LREKLLELEQSLRNLEDIHMSLEK [A8L], LREKLLEPEQSLRNLEDIHMSLEK [A8P] is higher in protein stability index: 1.63 for the first, 4.59 for the second.

Going from LREKLLEKEQSLRNLEDIHMSLEK [A8K] to LREKLLEYEQSLRNLEDIHMSLEK [A8Y], the protein stability index falls from 4.01 to 3.58.

First: LREKLLECEQSLRNLEDIHMSLEK [A8C]
Second: LREKLLEWEQSLRNLEDIHMSLEK [A8W]
The protein stability index of the first is lower: 1.64 for the first, 1.8 for the second.

Going from LREKLLEHEQSLRNLEDIHMSLEK [A8H] to LREKLLESEQSLRNLEDIHMSLEK [A8S], the protein stability index falls from 3.67 to 3.

Compared with LREKLLEDEQSLRNLEDIHMSLEK [A8D], LREKLLEGEQSLRNLEDIHMSLEK [A8G] is lower in protein stability index: 2.86 for the first, 2.2 for the second.

First: LREKLLENEQSLRNLEDIHMSLEK [A8N]
Second: LREKLLEIEQSLRNLEDIHMSLEK [A8I]
The protein stability index of the first is higher: 4.59 for the first, 1.48 for the second.

First: LREKLLETEQSLRNLEDIHMSLEK [A8T]
Second: LREKLLIAEQSLRNLEDIHMSLEK [E7I]
The protein stability index of the first is higher: 2.61 for the first, 2.06 for the second.

First: LREKLLQAEQSLRNLEDIHMSLEK [E7Q]
Second: LREKLLSAEQSLRNLEDIHMSLEK [E7S]
The protein stability index of the first is lower: 2.35 for the first, 2.42 for the second.

First: LREKLLKAEQSLRNLEDIHMSLEK [E7K]
Second: LREKLLDAEQSLRNLEDIHMSLEK [E7D]
The protein stability index of the first is higher: 2.51 for the first, 2.38 for the second.

Compared with LREKLLMAEQSLRNLEDIHMSLEK [E7M], LREKLLGAEQSLRNLEDIHMSLEK [E7G] is higher in protein stability index: 2.38 for the first, 3.75 for the second.

Going from LREKLLWAEQSLRNLEDIHMSLEK [E7W] to LREKLLHAEQSLRNLEDIHMSLEK [E7H], the protein stability index rises from 1.75 to 3.6.

Compared with LREKLLYAEQSLRNLEDIHMSLEK [E7Y], LREKLLTAEQSLRNLEDIHMSLEK [E7T] is higher in protein stability index: 2.08 for the first, 2.93 for the second.

Going from LREKLLAAEQSLRNLEDIHMSLEK [E7A] to LREKLLLAEQSLRNLEDIHMSLEK [E7L], the protein stability index falls from 2.46 to 1.75.

Compared with LREKLLVAEQSLRNLEDIHMSLEK [E7V], LREKLLNAEQSLRNLEDIHMSLEK [E7N] is lower in protein stability index: 2.56 for the first, 2.39 for the second.

Going from LREKLLCAEQSLRNLEDIHMSLEK [E7C] to LREKLLPAEQSLRNLEDIHMSLEK [E7P], the protein stability index rises from 2.17 to 4.17.

Compared with LREKLLFAEQSLRNLEDIHMSLEK [E7F], LSEKLLEAEQSLRNLEDIHMSLEK [R2S] is lower in protein stability index: 2.5 for the first, 2.33 for the second.

Compared with LEEKLLEAEQSLRNLEDIHMSLEK [R2E], LYEKLLEAEQSLRNLEDIHMSLEK [R2Y] is lower in protein stability index: 2.43 for the first, 2.05 for the second.

Going from LDEKLLEAEQSLRNLEDIHMSLEK [R2D] to LIEKLLEAEQSLRNLEDIHMSLEK [R2I], the protein stability index falls from 2.72 to 2.41.

Compared with LKEKLLEAEQSLRNLEDIHMSLEK [R2K], LNEKLLEAEQSLRNLEDIHMSLEK [R2N] is lower in protein stability index: 3.61 for the first, 1.86 for the second.

First: LMEKLLEAEQSLRNLEDIHMSLEK [R2M]
Second: LFEKLLEAEQSLRNLEDIHMSLEK [R2F]
The protein stability index of the first is higher: 1.89 for the first, 1.16 for the second.

Going from LGEKLLEAEQSLRNLEDIHMSLEK [R2G] to LTEKLLEAEQSLRNLEDIHMSLEK [R2T], the protein stability index rises from 2.34 to 2.83.

First: LQEKLLEAEQSLRNLEDIHMSLEK [R2Q]
Second: LCEKLLEAEQSLRNLEDIHMSLEK [R2C]
The protein stability index of the first is higher: 1.9 for the first, 1.48 for the second.

Compared with LLEKLLEAEQSLRNLEDIHMSLEK [R2L], LVEKLLEAEQSLRNLEDIHMSLEK [R2V] is lower in protein stability index: 1.93 for the first, 1.7 for the second.

Compared with LHEKLLEAEQSLRNLEDIHMSLEK [R2H], LPEKLLEAEQSLRNLEDIHMSLEK [R2P] is higher in protein stability index: 2.02 for the first, 3.11 for the second.

Going from LREFLLEAEQSLRNLEDIHMSLEK [K4F] to LREHLLEAEQSLRNLEDIHMSLEK [K4H], the protein stability index rises from 1.43 to 3.01.

Compared with LREWLLEAEQSLRNLEDIHMSLEK [K4W], LREALLEAEQSLRNLEDIHMSLEK [K4A] is higher in protein stability index: 1.74 for the first, 2.21 for the second.
